Experimental data published in publication PMC7705443 (2020).

Target: SARS-CoV-2 RBD (residues 319-541), C-terminal his-tag (SARS-CoV-2, UniProt P0DTC2 319-541)
Experiment: SPR

B1: P17 antibody (full-length IgG1) (antibody, V domains shown)
VH: QQLVESGGGVVQPGRSLRLSCAASGFTFSSYAMHWVRQAPGKGLEWVAVISYDGSNKYYADSVKGRFTISRDNSKNTLYLQMNSLRAEDTAVYYCARHATLMNNKDIWGQGTLVTVSS
VL: not shown
Work on B1 yielded a koff of 0.000221 s⁻¹.
